Assay results: the DeepSol protein solubility set

Test: soluble on expression in E. coli; label from the status in PepcDB or PDB records

| Sequence | soluble on expression in E. coli |
| --- | --- |
| MYRDRVRLPSLLDKVMSAAEAADLIQDGMTVGMSGFTRAGEAKAVPQALAMRAKERPLRISLMTGASLGNDLDKQLTEAGVLARRMPFQVDSTLRKAINAGEVMFIDQHLSETVEQLRNHQLKLPDIAVIEAAAITEQGHIVPTTSVGNSASFAIFAKQVIVEINLAHSTNLEGLHDIYIPTYRPTRTPIPLTRVDDRIGSTAIPIPPEKIVAIVINDQPDSPSTVLPPDGETQAIANHLIDFFKREVDAGRMSNSLGPLQAGIGSIANAVMCGLIESPFENLTMYSEVLQDSTFDLIDAGKLRFASGSSITLSPRRNADVFGNLERYKDKLVLRPQEISNHPEVVRRLGIIGINTALEFDIYGNVNSTHVGGTKMMNGIGGSGDFARNAHLAIFVTKSIAKGGNISSVVPMVSHVDHTEHDVDILVTEQGLADLRGLAPRERARVIIENCVHPSYQAPLLDYFEAACAKGGHTPHLLREALAWHLNLEERGHMLAG | soluble |
| MDKMLEKFEGSILGLSIGDALGMPTEWFTKEEIAEKYGLIDNFVDPKNKFNGILKAGQYTDDTDQTIAILNSFDVRGFNNDIFIKELIKWYNNNPVGMGPTSTKAIEKLIEGDTTGCDSRTCGSSMRVGPLGLFYFGEYDKLKEITIKATKLTHNNDEAIAGALSIAFFVAESVNNVKSEKSIKRCAKFIEDVSYDFSEKILLINDLNSADEAYELFDTGLPAIECVPSAIATFLRTDTFKDGMISCVNAGGDTDSMGSMYGAIAGAYYGVLNIPELWIAGLQNKDLLVDLSKKLYKLRFKKLEHHHHHH | soluble |
| MNIKKLAILGTLATTFSFEAFASTGMPKIEELTGDTRTACEVILCLSSAQGRGIKECQAPLRKYFSIRAKKWHKTLAKRRAFLDLCPAANENAKMSALTTAIQHQEYACDAGTLNSRTETRRNWVRRSSEDGGSFSRRLVRTQAYIPDFCKALYDHEFTEYKQIQKPKYVCDANKWYSQADWNRGFERVEVSRKWNHREDRYDIQYKDVPIKKDCWELEHHHHHH | not soluble |
| MGIFSERLKEAMQQANITSAQLSKQTGIGRSSISQWLSNKYVAKHDKVTALAAVLNVSPDWLLGTTDVATAVSPEAVPIPVSVTPTPAVDPELITLWEQLDTKQRSKLIKKARKLLTKSAEQPNTKRKKNKKKKKGKKRK | not soluble |
| MGHHHHHHGGHMSLKVLDFPSSKKAKELAVKYGYDEFIVRRWLHFFGDETEDIIRAFEEGIPKYIRINTLKIDEKGLLERLESRGFKLKKTEVPYCFEVVEEPYSIGATPEYLMGYYYVMDKSSCIPPLALEPKPGEVVVDLAASPGGKTTFLSMLMENKGAVIAVEPQKERLQPLIDNINRMGAMNVAVINVDGRRVPAMGIKADRVLLDAPCTGEGIIHKDPSRKTDRGKEDILFCSSLQRELVLAAFDCLKEGGVMVYSTCSLTPEENEFVVDFLLERRKGVVEEIEWGDEALALPGVKNEVSKARRFYPHRHQCSGFFVARIRKVGDSKAKPEEGGS | soluble |
| MYTFKKGDADYQVMLNENFKEITDSFEDGLFVRKNSKILDLNDAILPGIYSIPATGVDNKPLPNSGSLFVCKDPGGVRQLFQTERTIFIRQLGGVPSSWTDWKKVAFEKEQPFEAWYSPGTNHAGFKNKARYNLGPEFSNIGQRLGLPMKSEPLEWNSGRWQAKVLRDCKLNISGTVKYHVGSSRGVLYAYTHIDKGLDEGVGDLGIGSAVGAVGGLDYKNVAAFDLNVTLKKGEYLAFRLELAADKQLDYTQLSSMHITELV | not soluble |
| MNREGAPGKSPEEMYIQQKVRVLLMLRKMGSNLTASEEEFLRTYAGVVNSQLSQLPPHSIDQGAEDVVMAFSRSETEDRRQ | soluble |
| MGSDKIHHHHHHKVRPTKTTLKKDTQLYGVTIDDSWYDRTKMTDIIAALKAMPVKPTVRIVMSKDSSPKSYVNLFRKLHKVAYVMACPVDSYEMNLYKDVNSYRKRFAVAYHYLSSYTDIWEIGNEVNGTDWIKQKNTLITQKLKAVCQTISSAGGKTALTFYYENPKYDHDMIAWIKKNIPVMLRSRVDYGFISYYEDDNEGYQPDWQSVFNQLQNLFPNSNVGMGECGNTADNATENSKIAMAKRYYTMPKYTKHYVGGYFWWEWVQDCVPHENNPIYDAINKSLKK | not soluble |
| MLTKVIEQAKIDHFTKWFERADKIVIVSHVSPDGDAIGSSLGLYHFLDSQEKTVNVIVPNAFPDFLRWMPGSKDILLYDRYKDFADKLIAEADVICCLDFNALKRIDEMADAVAASPARKVMIDHHLYPEEFCKITMSYPKISSTSELIFRLICRMGYFSDISKEGAECIYTGMMTDTGGFTYNSNNREIYFIISELLSKGIDKDDIYRKVYNTYSESRLRLMGYVLSNMVVYSDYNAALISLTKEEQSKFDYIKGDSEGFVNIPLTIKNVCFSCFLREDTEKPMIKISLRSVGTFPCNQLAAEFFNGGGHLNASGGEFFGTIEEAKAVFEQALEKYKPLLTAKSLEHHHHHH | soluble |
| IGEVSYGAKFVLSDDQQKILRYPNDSYDVGSYYKGEHLNDIWGLTTIGIAKSQEEMDAHLAKVDQSSVGTNWGVGDIMYADLDGDGKISNGTNKLGDTGDYRIIGNSTPRFKYGITLDAAWKGFDFSIFMQGIGKRDLWLDGCYFWGANGQGNEWQSTGFAEHWDFFRPEGDPLGANLNSYYPRVNFSGDRNTKVQTRYLQNGAYLRLKNVQLGYTLPRVWTEKAGISSVRVYVSGDNLATITSLSKIFDPEATGSLAGTGSGKLYPLQRVISVGVNVNF | not soluble |
| MGHHHHHHSHMQLVRDLLEVTSGLISDDIINMRNDLYQTPLHLAVITKQEDVVEDLLRAGADLSLLDRLGNSVLHLAAKEGHDKVLSILLKHKKAALLLDHPNGDGLNAIHLAMMSNSLPCLLLLVAAGADVNAQEQKSGRTALHLAVEHDNISLAGCLLLEGDAHVDSTTYDGTTPLHIAAGRGSTRLAALLKAAGADPLVENFEPLYDL | not soluble |
| MAHHHHHHMDVSRRLAGENHDFRRSTQVPALCTKPQGGKGMRLNVLHEGAVPANDFHSAHLTPYEMDEIKGYSEVYYVGQNCDRKVQAPVEGGHNKGYDDERGDYLIRLRDHIAYRYEVLSTLGSGSFGQVVKAVDHCKNCTVALKIIRNRKRFTAQAKIEVQILSHLKKGDPSGIYGIVQMIDNFTFRSHVCITYELLGCNLYTYLKQRRFKPLPLDVVRKIGAGVLVSLSYMWRENIIHCDLKPENILLRSPNDTAVKVIDLGSSCFENARLFTYIQSRFYRAPEVLLGCPYSRCIDLWSYGCVLCELASGYPIFPGESEQEQMACIMEFLGTPPRDFILRSPRKHEFFEASANYSPKLVPNSKLKIRFPGTKNIAAFLGLPEGDPFVSFVKLFLEWVPDSRATPRRAMKHPWIADEVNELLSKQKRNTAATGEDDSESKFHKALPRLPKIGK | not soluble |
| MSRDLPSLNALRAFEAAARLHSISLAAEELHVTHGAVSRQVRLLEDDLGVALFGKDGRGVKLTDSGVRLRDACGDAFERLRGVCAELRRQTAEAPFVLGVPGSLLARWFIPRLDQLNRALPDLRLQLSTSEGEFDPRRPGLDAMLWFAEPPWPADMQVFELAPERMGPVVSPRLAQETGLAQAPAARLLQEPLLHTASRPQAWPAWAASQGLAAEALRYGQGFEHLYYLLEAAVAGLGVAIAPEPLVRDDLAAGRLAAPWGFIETDARLALWVPARLHDPRAGRLAQWLREQLAG | not soluble |
| MEDIKSLLLQCPVLAGLPVEGINEAVQIVRARHFDEKALICSKGAQHSSLMVIAKGSVRVNSISSKGKEVTLMIFETGGWFGDNVFSPGMPRIFGATAHTDVTLLELPGDKFRQLLAKYPQSYPVILDLLSRRLWSAISVIEDDAIRGIEERIGRRLLLLAEYQHNRPISAQSCVVKVTREHIANMMGLTRQSVHKVLKKLENSNVLRLQYGSITILNPLKMEAYLKQLE | not soluble |
| MGSDKIHHHHHHMMKRVLIKPLEPLMFRSQGEFEPLITGSHTAAQSLIIPRPSTIAGMLGYILFNKSSGTGDWLSDLTNLLDTIYGTFIETNGEYLFPLRMGNHLALVDQQHLINLPILLEKEYEQREKGIYELFYDKNKLFQIINHQDRIGISIDKSTRTVKEHYLYSARYLAFKKEVNYVIFIDNDAISDKINGKIVNFGGENRIAKLEVDDYKVDTSIEEEYYLTLSPILIPDEALDDLLDNISDYVTMGKVDKISLGFDIANTKRKEMLTAILEGSIVKRSIIDFIKKEINNNLLDRFTKYEKIGYNTLMNLCKLAFRKILS | not soluble |
| MGSDKIHHHHHHVLIKSIKLTNILSFGEAAETIELRPLNVVIGPNGSGKSNLIAAIELFRALPKDAPAFFRREGGIHDWLWKGGEIPPVATIESVFDEKGPLSGLRYALRFTVVGQHFEIIEERIEEEAAEGAQTPPPYHFKDGRGALRALLANEGEIKAWSFVIPSEIDPTQSILAQRKDPHQYPELTSLGAVLPTMRCYREWTMGPQSPPRQDQKTDLRNDYLDPYGAGNLALVLQRLGNKPALKKRFLEALRLLYEGIDDYGVTIEGGTSQIFFHEGGRFTIPASRLSDGTLRYLCLLAILLDPAPPPLLCIEEPELGLHPDILPTLADLLKEASERTQVIVTTHSDGLVDAMTDRPEAVLIAEKNENGTTLTRLDGETLKPWLAKYRLGELWTRGGIGGTRW | not soluble |
| MPTTRHYDIVIIGGGIQGAAVAQAAAALGYNVLVLEKTALAAGTSSRSSKLIHGGLRYLESGQFGLVWESLKERAALLRLAPSLVRLQPFHIPIYDQTSRDTLTIRAGLSLYALLAGLSKGAGFHSIPRRRWGELDGLSTRGLRHVFQYWDAQTDDQALTRAIMHSASSLGVELHCPAEFIHARISGEICEIEFLENNQAYQCTASSLVNAAGPWVSQVAERISPAPPAYPVELVQGTHLILEGSLDKGCYYLESPQDRRAIFALPWKQHILLGTTETVFEGAPDKALPLVSEENYLLGCFRYYFPDHGATVRERFTGLRVLPVSRNNPFGRSRETHLQCDSPESPRIVGIYGGKLTVCRATARKVLHTLRPSLPVRIPKADISQLTLKLPLEHHHHHH | soluble |
| MFGIDGLEFLVILLVLIVVVGPKDLPKMLKTMARAIAYVRSTANEFRHQFDDAIKQAELDDLQKTLSDMNDFNPDKKLTGILNPMQDIRGDILNNFDVNTTHHKLEKDQENFECNENKTNEDLDVPVDAHSSGSVFVTSKDKESAS | not soluble |
| MGSDKIHHHHHHMRNLGNTNMKIKRVGFGGIPIQRITQDDTNLVINELEKQGINFIDSARGYTISEEAIGIAIEGKRDKFFLATKSMSRDYDSMKRDVEISLNNFKTDFIDLYQFHNVKEEEYDNLFKDKMAYSALLEAKEQGKIKHIGITSHNLNTIEKAIEDGKFDTIQFPYNIVEGQADEVFKKAHEKGIGIIVMKPLAGGALDNATLAIKYILSKDYIDVVIPGMESVEQVRQNVAVLENLVLDEKDNKEIEEIRNSLGKKFCRRCEYCMPCAVGINIPLSFLCEGYYTRYGLKEWAKEKYEVMDVKPTECIDCGLCESRCPYELPIREMLKTVVEKLG | not soluble |
| MFLLQAPLQRRILEIGKKHGITELHPDVVSYVSHATQQRLQNLVEKISETAQQKNFSYKDDDRYEQASDVRAQLK | soluble |
| MSETATWQPSASIPNLLKRAAIMAEIRRFFADRGVLEVETPCMSQATVTDIHLFPFETRFVGPGHSQGINLYLMTSPEYHMKRLLAAGCGPVFQLCRSFRNEEMGRHHNPEFTMLEWYRPHYDMYRLMNEVDDLLQQVLDCQPAESLSYQQAFQRHLEIDPLSADKTQLREAAAKLDLSNIADTEEDRDTLLQLLFTMGVEPHIGKEKPTFIYHFPASQASLAQISTEDHRVAERFEVYYKGIELANGFHELTDAREQQQRFEQDNRKRAARGLPQQPIDQNLLDALAAGLPDCSGVALGVDRLVMLALGAESLADVIAFTVDRA | not soluble |
